Measured values published in patent US20260116921A1, “PEPTIDE INHIBITORS OF INTERLEUKIN-23 RECEPTOR AND THEIR USE TO TREAT INFLAMMATORY DISEASES” (priority 2018, published 2026).
Numbered stars: 1 amine (or outer) side, 2 acyl side, 3 side chain; on linkers, the order of the positions; unused ones are H or OH. Bridge positions count the residues as written; N and C are the ends. Square brackets hold non-standard residues; d marks the D form. Trp(7-Et) = 7-ethyl-tryptophan, CCc1cccc2c(C[C@H](N[*:1])C(=O)[*:2])c[nH]c12; Trp(7-OMe) = COc1cccc2c(C[C@H](N)C(=O)O)c[nH]c12; His(π-Bom) = N[C@@H](Cc1cncn1COCc1ccccc1)C(=O)O; Trp(7-Me) = Cc1cccc2c(C[C@H](N)C(=O)O)c[nH]c12; 2Nal = N[C@@H](Cc1ccc2ccccc2c1)C(=O)O; AEF = NCCOc1ccc(C[C@H](N)C(=O)O)cc1; Cit = NC(=O)NCCC[C@H](N)C(=O)O; Pen = CC(C)(S)[C@H](N)C(=O)O; αMeK = C[C@](N)(CCCCN)C(=O)O; Aib = CC(C)(N)C(=O)O; βAla = NCCC(=O)O

T1: IL-23R (human, UniProt Q5VWK5 24-629)
T1 sequence (looked up): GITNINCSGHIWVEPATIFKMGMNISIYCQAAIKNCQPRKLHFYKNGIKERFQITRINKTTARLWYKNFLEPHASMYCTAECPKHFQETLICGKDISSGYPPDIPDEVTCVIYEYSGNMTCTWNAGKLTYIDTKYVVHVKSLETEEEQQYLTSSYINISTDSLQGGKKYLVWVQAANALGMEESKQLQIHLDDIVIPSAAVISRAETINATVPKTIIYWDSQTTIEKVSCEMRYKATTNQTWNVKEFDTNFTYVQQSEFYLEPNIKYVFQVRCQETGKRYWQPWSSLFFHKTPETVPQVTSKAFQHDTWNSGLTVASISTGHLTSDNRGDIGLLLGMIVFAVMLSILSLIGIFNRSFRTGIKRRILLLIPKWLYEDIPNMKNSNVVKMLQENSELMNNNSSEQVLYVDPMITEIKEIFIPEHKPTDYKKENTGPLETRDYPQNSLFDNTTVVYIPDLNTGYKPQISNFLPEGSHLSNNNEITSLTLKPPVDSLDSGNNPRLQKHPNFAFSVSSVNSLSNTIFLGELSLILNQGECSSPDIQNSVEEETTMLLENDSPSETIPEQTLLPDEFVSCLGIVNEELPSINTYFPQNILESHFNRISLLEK

B1: SEQ ID NO: 291 (peptide)
peptide: Ac-[Pen]NT[Trp(7-Me)]K(Ac)[Pen][His(π-Bom)][2Nal][αMeK]K(Ac)N[dL]-NH2
modifications: disulfide 1-6
B2: SEQ ID NO: 320 (peptide)
peptide: XNTXXXXXXKNL
modifications: Ac-[Pen]-N-T-[W(7-Me)]-[Lys(Gly)]-[Pen]-Phe[4-(2-aminoethoxy)]-[2-Nal]-[a-MeLys]-[Lys(Ac)]-N-[(D)Leu]-NH2; Pen-Pen disulfide
B3: SEQ ID NO: 300 (peptide)
peptide: Ac-[Pen]NT[Trp(7-OMe)][Cit][Pen][AEF][2Nal][αMeK]K(Ac)N[dK]-NH2
modifications: disulfide 1-6
SMILES: COc1cccc2c(C[C@@H]3NC(=O)[C@H]([C@@H](C)O)NC(=O)[C@H](CC(N)=O)NC(=O)[C@@H](NC(C)=O)C(C)(C)SSC(C)(C)[C@@H](C(=O)N[C@@H](Cc4ccc(OCCN)cc4)C(=O)N[C@@H](Cc4ccc5ccccc5c4)C(=O)N[C@@](C)(CCCCN)C(=O)N[C@@H](CCCCNC(C)=O)C(=O)N[C@@H](CC(N)=O)C(=O)N[C@H](CCCCN)C(N)=O)NC(=O)[C@H](CCCNC(N)=O)NC3=O)c[nH]c12
B4: SEQ ID NO: 341 (peptide)
peptide: Ac-[Pen]NT[Trp(7-Me)][Cit][Pen][AEF][2Nal][αMeK]K(Ac)N[Aib]G-NH2
modifications: disulfide 1-6
SMILES: CC(=O)NCCCC[C@H](NC(=O)[C@](C)(CCCCN)NC(=O)[C@H](Cc1ccc2ccccc2c1)NC(=O)[C@H](Cc1ccc(OCCN)cc1)NC(=O)[C@H]1NC(=O)[C@H](CCCNC(N)=O)NC(=O)[C@H](Cc2c[nH]c3c(C)cccc23)NC(=O)[C@H]([C@@H](C)O)NC(=O)[C@H](CC(N)=O)NC(=O)[C@@H](NC(C)=O)C(C)(C)SSC1(C)C)C(=O)N[C@@H](CC(N)=O)C(=O)NC(C)(C)C(=O)NCC(N)=O
B5: SEQ ID NO: 347 (peptide)
peptide: Ac-[Pen]NT[Trp(7-Me)][Cit][Pen][AEF][2Nal][αMeK]K(Ac)N[Aib][dY]-NH2
modifications: disulfide 1-6
SMILES: CC(=O)NCCCC[C@H](NC(=O)[C@](C)(CCCCN)NC(=O)[C@H](Cc1ccc2ccccc2c1)NC(=O)[C@H](Cc1ccc(OCCN)cc1)NC(=O)[C@H]1NC(=O)[C@H](CCCNC(N)=O)NC(=O)[C@H](Cc2c[nH]c3c(C)cccc23)NC(=O)[C@H]([C@@H](C)O)NC(=O)[C@H](CC(N)=O)NC(=O)[C@@H](NC(C)=O)C(C)(C)SSC1(C)C)C(=O)N[C@@H](CC(N)=O)C(=O)NC(C)(C)C(=O)N[C@H](Cc1ccc(O)cc1)C(N)=O
B6: SEQ ID NO: 319 (peptide)
peptide: XNTXXXXXXKNL
modifications: Ac-[Pen]-N-T-[W(7-Me)]-[Lys(trifluoropropionic)]-[Pen]-Phe[4-(2-aminoethoxy)]-[2-Nal]-[a-MeLys]-[Lys(Ac)]-N-[(D)Leu]-NH2; Pen-Pen disulfide
B7: SEQ ID NO: 344 (peptide)
peptide: Ac-[Pen]NT[Trp(7-Me)][Cit][Pen][AEF][2Nal][αMeK]K(Ac)N[Aib][dK]-NH2
modifications: disulfide 1-6
SMILES: CC(=O)NCCCC[C@H](NC(=O)[C@](C)(CCCCN)NC(=O)[C@H](Cc1ccc2ccccc2c1)NC(=O)[C@H](Cc1ccc(OCCN)cc1)NC(=O)[C@H]1NC(=O)[C@H](CCCNC(N)=O)NC(=O)[C@H](Cc2c[nH]c3c(C)cccc23)NC(=O)[C@H]([C@@H](C)O)NC(=O)[C@H](CC(N)=O)NC(=O)[C@@H](NC(C)=O)C(C)(C)SSC1(C)C)C(=O)N[C@@H](CC(N)=O)C(=O)NC(C)(C)C(=O)N[C@H](CCCCN)C(N)=O
B8: SEQ ID NO: 277 (peptide)
peptide: XNTXQXXXXKNX
modifications: Ac-[Pen]-N-T-[W(7-Me)]-Q-[Pen]-Phe[4-(2-aminoethoxy)]-[2-Nal]-[Acbc]-[Lys(Ac)]-N-[bA]-NH2; Pen-Pen disulfide
B9: SEQ ID NO: 284 (peptide)
peptide: Ac-[Pen]NT[Trp(7-Et)]K(Ac)[Pen][AEF][2Nal][αMeK]K(Ac)N[dL]-NH2
modifications: disulfide 1-6 (inferred)
B10: SEQ ID NO: 322 (peptide)
peptide: XNTXXXXXXKNL
modifications: Ac-[Pen]-N-T-[W(7-Me)]-[Lys(Aib)]-[Pen]-Phe[4-(2-aminoethoxy)]-[2-Nal]-[a-MeLys]-[Lys(Ac)]-N-[(D)Leu]-NH2; Pen-Pen disulfide
B11: SEQ ID NO: 340 (peptide)
peptide: Ac-[Pen]NT[Trp(7-Me)][Cit][Pen][AEF][2Nal][αMeK]K(Ac)N[Aib][βAla]-NH2
modifications: disulfide 1-6
SMILES: CC(=O)NCCCC[C@H](NC(=O)[C@](C)(CCCCN)NC(=O)[C@H](Cc1ccc2ccccc2c1)NC(=O)[C@H](Cc1ccc(OCCN)cc1)NC(=O)[C@H]1NC(=O)[C@H](CCCNC(N)=O)NC(=O)[C@H](Cc2c[nH]c3c(C)cccc23)NC(=O)[C@H]([C@@H](C)O)NC(=O)[C@H](CC(N)=O)NC(=O)[C@@H](NC(C)=O)C(C)(C)SSC1(C)C)C(=O)N[C@@H](CC(N)=O)C(=O)NC(C)(C)C(=O)NCCC(N)=O
B12: SEQ ID NO: 220 (peptide)
peptide: XNTXQXXXXGPX
modifications: Ac-[Pen]-NT-[W(7-Me)]-Q-[Pen]-Phe[4-(2-aminoethoxy)]-[2-Nal]-[a-MeLeu]-G-[(D)Pro]-[bA]-NH2; Pen-Pen disulfide
B13: SEQ ID NO: 342 (peptide)
peptide: Ac-[Pen]NT[Trp(7-Me)][Cit][Pen][AEF][2Nal][αMeK]K(Ac)N[Aib]A-NH2
modifications: disulfide 1-6
SMILES: CC(=O)NCCCC[C@H](NC(=O)[C@](C)(CCCCN)NC(=O)[C@H](Cc1ccc2ccccc2c1)NC(=O)[C@H](Cc1ccc(OCCN)cc1)NC(=O)[C@H]1NC(=O)[C@H](CCCNC(N)=O)NC(=O)[C@H](Cc2c[nH]c3c(C)cccc23)NC(=O)[C@H]([C@@H](C)O)NC(=O)[C@H](CC(N)=O)NC(=O)[C@@H](NC(C)=O)C(C)(C)SSC1(C)C)C(=O)N[C@@H](CC(N)=O)C(=O)NC(C)(C)C(=O)N[C@@H](C)C(N)=O
B14: SEQ ID NO: 224 (peptide)
peptide: XNTXQXXXXKXX
modifications: Ac-[Pen]-NT-[W(7-Me)]-Q-[Pen]-Phe[4-(2-aminoethoxy)]-[2-Nal]-[a-MeLeu]-[Lys(Ac)]-[Sarc]-[bA]-NH2; Pen-Pen disulfide
B15: SEQ ID NO: 346 (peptide)
peptide: Ac-[Pen]NT[Trp(7-Me)][Cit][Pen][AEF][2Nal][αMeK]K(Ac)N[Aib][dF]-NH2
modifications: disulfide 1-6
SMILES: CC(=O)NCCCC[C@H](NC(=O)[C@](C)(CCCCN)NC(=O)[C@H](Cc1ccc2ccccc2c1)NC(=O)[C@H](Cc1ccc(OCCN)cc1)NC(=O)[C@H]1NC(=O)[C@H](CCCNC(N)=O)NC(=O)[C@H](Cc2c[nH]c3c(C)cccc23)NC(=O)[C@H]([C@@H](C)O)NC(=O)[C@H](CC(N)=O)NC(=O)[C@@H](NC(C)=O)C(C)(C)SSC1(C)C)C(=O)N[C@@H](CC(N)=O)C(=O)NC(C)(C)C(=O)N[C@H](Cc1ccccc1)C(N)=O

target: T1, IL-23R; assay: cell-based or functional assay

pStat3 HTRF (nM) IC50 [nM]	Binder
> 100	B1
< 1	B2
> 100	B3
< 1	B4
< 1	B5
< 1	B6
< 1	B7
< 1	B8
< 1	B9
< 1	B10
< 1	B11
> 100	B12
< 1	B13
> 100	B14
< 1	B15
